Data on four molecules can be found in US20260062491A1.

Assay [1] addresses CD40 on peripheral blood B cells (CD3- CD19+ cells of PBMC) (UniProt P25942). The experiment in a line: flow cytometry: PBMC incubated with 0.043 uM His-tagged CD40L construct, secondary anti-His tag antibody; gate lymphoid, single, viable, CD3- CD19+ cells [panel B].
Assay [2] has the same target. As to the kind of experiment: flow cytometry: PBMC stained with the secondary anti-His tag antibody alone (negative control); gate lymphoid, single, viable, CD3- CD19+ cells [panel B]. In general terms: Flow cytometry measures light scatter and fluorescence of single cells or particles in a stream.

As for WT (ligand), the MFI in assay [1] was determined as 1300.
In assay [2], Control (antibody) came in with an MFI of 99.

B1: EPC10 (ligand, not shown: small tags and cut ends)
chain: GDQNPQIAAHVISEASSTTTSVLQWAEKGYYTMSNNLVTLENGKQLTVKRQGLYYIYAQVTFCSNREASSQAPFIASLCLKSPGRFERILLRAANTHSSAKHCGQQSIHLGGVFELQPGASVFVNVTDPSQVSHGTGFTSFGLFKL
In turn, B1 had an MFI in assay [1] of 1180.

B2: EPC7 (ligand, not shown: small tags and cut ends)
chain: GDQNPQIAAHVISEASSKTTSVLQWAEKGYYTMSNNLVTLENGKQLTVKRQGLYYIYAQVTFCSNREASGQAPFIASLCLKSPGRFERILLRAANTHSSAKRCGQQSIHLGGVFELQPGASVFVNVTDPSQVSHGTGFTSFGLFKL
As to B2, in assay [1], the MFI was found to be 1360.
